Measured values taken from publication PMC6553764.

Molecular target: FSFG6 (a segment of Nsp1FG that contains six repeats of the FxFG-type region) (S. cerevisiae)
Assay: SPR; XPR36 (BioRad), GLC chip; FG construct conjugated by its C-terminal cysteine to maleimide surface, quenched with beta-mercaptoethanol; analyte in TBT-PVP at 100 μl/min, association 15-120 s, dissociation 10 min, 25°C

fastest association rate estimated from the kinetic model fits: 3e+06 M⁻¹ s⁻¹
Substance: Kap95 (without the GST domain) (from UniProt Q06142 1-861) (natural protein)
